Source: publication PMC4506714

Experiments:
SSB = SSB (E. coli, UniProt P0AGE0 1-178); test: EMSA
RPA (RPA70-RPA32-RPA14) = RPA (RPA70-RPA32-RPA14) (UniProt P27694;P15927;P35244 1-616;1-270;1-121); test: EMSA
Sequence of RPA (RPA70-RPA32-RPA14) (P27694 whole entry, chain 1 of 3): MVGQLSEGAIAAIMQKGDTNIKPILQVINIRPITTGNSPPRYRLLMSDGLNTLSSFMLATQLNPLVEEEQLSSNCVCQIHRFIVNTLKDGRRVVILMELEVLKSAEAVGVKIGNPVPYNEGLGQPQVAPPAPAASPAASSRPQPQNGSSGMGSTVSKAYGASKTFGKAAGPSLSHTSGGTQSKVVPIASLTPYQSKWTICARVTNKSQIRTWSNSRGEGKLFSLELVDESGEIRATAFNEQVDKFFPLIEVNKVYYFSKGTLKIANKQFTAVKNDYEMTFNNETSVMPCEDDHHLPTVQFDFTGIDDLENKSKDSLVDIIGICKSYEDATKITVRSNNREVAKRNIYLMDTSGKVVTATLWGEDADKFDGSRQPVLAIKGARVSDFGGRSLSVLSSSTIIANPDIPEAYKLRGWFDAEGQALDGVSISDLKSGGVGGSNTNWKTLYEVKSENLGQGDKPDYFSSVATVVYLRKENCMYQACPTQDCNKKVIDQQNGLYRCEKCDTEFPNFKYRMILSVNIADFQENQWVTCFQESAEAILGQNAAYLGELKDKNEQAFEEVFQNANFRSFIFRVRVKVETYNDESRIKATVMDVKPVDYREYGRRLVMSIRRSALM
Sequence of RPA (RPA70-RPA32-RPA14) (P15927 whole entry, chain 2 of 3): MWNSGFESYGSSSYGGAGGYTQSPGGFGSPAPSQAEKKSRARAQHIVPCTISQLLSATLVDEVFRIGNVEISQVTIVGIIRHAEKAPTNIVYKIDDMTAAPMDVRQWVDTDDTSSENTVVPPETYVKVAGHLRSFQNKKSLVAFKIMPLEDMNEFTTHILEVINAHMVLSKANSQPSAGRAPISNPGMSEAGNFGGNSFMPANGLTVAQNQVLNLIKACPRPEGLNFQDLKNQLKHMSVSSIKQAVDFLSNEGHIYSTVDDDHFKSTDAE
Sequence of RPA (RPA70-RPA32-RPA14) (P35244 whole entry, chain 3 of 3): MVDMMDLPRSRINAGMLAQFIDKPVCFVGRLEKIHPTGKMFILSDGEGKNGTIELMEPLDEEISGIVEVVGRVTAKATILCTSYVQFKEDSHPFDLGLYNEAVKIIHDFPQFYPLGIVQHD

Sequence of SSB (P0AGE0 whole entry): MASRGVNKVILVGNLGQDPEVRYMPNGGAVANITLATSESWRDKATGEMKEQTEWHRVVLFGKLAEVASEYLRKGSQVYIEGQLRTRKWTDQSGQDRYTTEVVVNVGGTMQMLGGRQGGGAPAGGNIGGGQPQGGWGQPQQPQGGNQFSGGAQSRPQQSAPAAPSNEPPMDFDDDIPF

TTTTTTTTTTTTTTTTTTTTTTTTTTTTTT (ssDNA) [dT30]: binds (SSB); binds (RPA (RPA70-RPA32-RPA14)).
